Reference: the supplement of paper PMC9112550, “Optimization of the antimicrobial peptide Bac7 by deep mutational scanning” (BMC Biology, 2022)

System: Escherichia coli TOP10
Assay: shrunken log2 fold change of peptide-encoding DNA abundance (4.5 h post-induction vs induction); higher = less antimicrobial activity (less host growth inhibition)
Conditions: time post-induction: 4.5 h; library: site-saturation at positions 5, 18, 19, 20
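Further: peptides expressed intracellularly from a pBAD plasmid library in pooled LB shake-flask culture, induced with 0.3% L-arabinose, DNA abundance read by NGS, three biological replicates, DESeq2 with apeglm shrinkage.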

RRIRNRPPRLPRPRPRPFWYPRP and RRIRLRPPRLPRPRPRPIWDPRP are within 0.2 log units of each other in “shrunken log2 fold change” value: 0.0148 for the first, -0.0847 for the second.

RRIRMRPPRLPRPRPRPQNRPRP and RRIRPRPPRLPRPRPRPCPIPRP are within 0.2 log units of each other in “shrunken log2 fold change” value: -0.0361 for the first, 0.082 for the second.

First: RRIRPRPPRLPRPRPRPTKPPRP
Second: RRIRMRPPRLPRPRPRPAEHPRP
The “shrunken log2 fold change” value of the first is higher: 0.323 for the first, -0.0575 for the second.

Compared with RRIRFRPPRLPRPRPRPQVYPRP, RRIRTRPPRLPRPRPRPFFAPRP is higher in “shrunken log2 fold change” value: -0.167 for the first, 0.223 for the second.

Going from RRIRERPPRLPRPRPRPMKKPRP to RRIRYRPPRLPRPRPRPLLMPRP, the “shrunken log2 fold change” value falls from 0.00499 to -0.547.

First: RRIRVRPPRLPRPRPRPNAHPRP
Second: RRIRKRPPRLPRPRPRPKGNPRP
The “shrunken log2 fold change” value of the first is lower: 0.038 for the first, 0.325 for the second.

Compared with RRIRFRPPRLPRPRPRPYPPPRP, RRIRPRPPRLPRPRPRPEICPRP is higher in “shrunken log2 fold change” value: -0.665 for the first, 0.0345 for the second.

RRIRRRPPRLPRPRPRPQAAPRP and RRIRCRPPRLPRPRPRPEEWPRP are within 0.2 log units of each other in “shrunken log2 fold change” value: 0.0105 for the first, 0.0214 for the second.

Compared with RRIRDRPPRLPRPRPRPDSKPRP, RRIRFRPPRLPRPRPRPPWRPRP is higher in “shrunken log2 fold change” value: 0.0365 for the first, 1.68 for the second.

Going from RRIRRRPPRLPRPRPRPTIQPRP to RRIRYRPPRLPRPRPRPLDEPRP, the “shrunken log2 fold change” value rises from 0.144 to 3.09.

RRIRLRPPRLPRPRPRPRMEPRP and RRIRDRPPRLPRPRPRPWCAPRP are within 0.2 log units of each other in “shrunken log2 fold change” value: 0.123 for the first, -0.0367 for the second.

First: RRIRWRPPRLPRPRPRPKCWPRP
Second: RRIRCRPPRLPRPRPRPDWEPRP
The “shrunken log2 fold change” value of the first is higher: 0.467 for the first, -0.524 for the second.

RRIRCRPPRLPRPRPRPTTNPRP and RRIRLRPPRLPRPRPRPQCYPRP are within 0.2 log units of each other in “shrunken log2 fold change” value: 0.0115 for the first, -0.172 for the second.

First: RRIRFRPPRLPRPRPRPCLMPRP
Second: RRIRARPPRLPRPRPRPGVEPRP
The “shrunken log2 fold change” value of the first is lower: -0.379 for the first, 0.118 for the second.

Going from RRIRSRPPRLPRPRPRPHHQPRP to RRIRGRPPRLPRPRPRPTCEPRP, the “shrunken log2 fold change” value rises from -0.61 to 1.1.

Compared with RRIRQRPPRLPRPRPRPMNRPRP, RRIRNRPPRLPRPRPRPLKPPRP is higher in “shrunken log2 fold change” value: -0.275 for the first, 0.203 for the second.

RRIRDRPPRLPRPRPRPDVFPRP and RRIRFRPPRLPRPRPRPMSAPRP are within 0.2 log units of each other in “shrunken log2 fold change” value: 0.07 for the first, -0.105 for the second.

Going from RRIRHRPPRLPRPRPRPDGMPRP to RRIRWRPPRLPRPRPRPCQQPRP, the “shrunken log2 fold change” value rises from -0.444 to -0.219.

First: RRIRLRPPRLPRPRPRPLTPPRP
Second: RRIRHRPPRLPRPRPRPFGWPRP
The “shrunken log2 fold change” value of the first is higher: 0.62 for the first, 0.0661 for the second.

Compared with RRIRARPPRLPRPRPRPMRHPRP, RRIRPRPPRLPRPRPRPSNKPRP is lower in “shrunken log2 fold change” value: 0.38 for the first, -0.56 for the second.

RRIRQRPPRLPRPRPRPSASPRP and RRIRPRPPRLPRPRPRPYPRPRP are within 0.2 log units of each other in “shrunken log2 fold change” value: 0.0788 for the first, 0.0824 for the second.

Compared with RRIRHRPPRLPRPRPRPHVMPRP, RRIRWRPPRLPRPRPRPDNEPRP is higher in “shrunken log2 fold change” value: -0.185 for the first, 0.403 for the second.

RRIRYRPPRLPRPRPRPIDQPRP and RRIRWRPPRLPRPRPRPCWGPRP are within 0.2 log units of each other in “shrunken log2 fold change” value: -0.0356 for the first, -0.122 for the second.

Compared with RRIRRRPPRLPRPRPRPFSGPRP, RRIRSRPPRLPRPRPRPWQYPRP is higher in “shrunken log2 fold change” value: -0.32 for the first, 0.0433 for the second.

Compared with RRIRNRPPRLPRPRPRPDCQPRP, RRIRGRPPRLPRPRPRPFTCPRP is lower in “shrunken log2 fold change” value: 0.0461 for the first, -0.22 for the second.

RRIRPRPPRLPRPRPRPETWPRP and RRIRDRPPRLPRPRPRPIGDPRP are within 0.2 log units of each other in “shrunken log2 fold change” value: 0.1 for the first, -0.00843 for the second.

Going from RRIRYRPPRLPRPRPRPSHLPRP to RRIRSRPPRLPRPRPRPKWEPRP, the “shrunken log2 fold change” value rises from -0.286 to 0.274.

First: RRIRFRPPRLPRPRPRPHMPPRP
Second: RRIRGRPPRLPRPRPRPKVEPRP
The “shrunken log2 fold change” value of the first is lower: -0.0659 for the first, 0.615 for the second.

Compared with RRIRGRPPRLPRPRPRPKRKPRP, RRIRVRPPRLPRPRPRPHYFPRP is lower in “shrunken log2 fold change” value: 0.835 for the first, -0.00578 for the second.

Compared with RRIRGRPPRLPRPRPRPCSDPRP, RRIRVRPPRLPRPRPRPVAYPRP is lower in “shrunken log2 fold change” value: 0.0118 for the first, -0.282 for the second.

RRIRCRPPRLPRPRPRPRLCPRP and RRIRRRPPRLPRPRPRPPHGPRP are within 0.2 log units of each other in “shrunken log2 fold change” value: 0.427 for the first, 0.596 for the second.

Going from RRIRFRPPRLPRPRPRPCSFPRP to RRIRKRPPRLPRPRPRPNCLPRP, the “shrunken log2 fold change” value rises from -0.349 to -0.0339.

First: RRIRDRPPRLPRPRPRPALAPRP
Second: RRIRFRPPRLPRPRPRPWKAPRP
The “shrunken log2 fold change” value of the first is higher: 1.32 for the first, 0.0062 for the second.

RRIRARPPRLPRPRPRPQFQPRP and RRIRFRPPRLPRPRPRPVARPRP are within 0.2 log units of each other in “shrunken log2 fold change” value: 0.0187 for the first, 0.0942 for the second.

First: RRIRCRPPRLPRPRPRPKKNPRP
Second: RRIRKRPPRLPRPRPRPTVRPRP
The “shrunken log2 fold change” value of the first is lower: 0.24 for the first, 0.899 for the second.

Going from RRIRTRPPRLPRPRPRPDQHPRP to RRIRQRPPRLPRPRPRPYMEPRP, the “shrunken log2 fold change” value rises from -0.626 to -0.26.

First: RRIRPRPPRLPRPRPRPYVCPRP
Second: RRIRDRPPRLPRPRPRPSLAPRP
The “shrunken log2 fold change” value of the first is lower: -0.73 for the first, 0.474 for the second.

First: RRIRKRPPRLPRPRPRPCNNPRP
Second: RRIRYRPPRLPRPRPRPYAKPRP
The “shrunken log2 fold change” value of the first is higher: -0.474 for the first, -1.76 for the second.

Compared with RRIRFRPPRLPRPRPRPCVVPRP, RRIRKRPPRLPRPRPRPRTYPRP is higher in “shrunken log2 fold change” value: -0.379 for the first, 0.0895 for the second.

Compared with RRIRNRPPRLPRPRPRPMYCPRP, RRIRKRPPRLPRPRPRPGAPPRP is higher in “shrunken log2 fold change” value: -0.268 for the first, 0.85 for the second.

First: RRIRVRPPRLPRPRPRPESRPRP
Second: RRIRYRPPRLPRPRPRPGGHPRP
The “shrunken log2 fold change” value of the first is higher: -0.0259 for the first, -0.278 for the second.

RRIRKRPPRLPRPRPRPDFEPRP and RRIRSRPPRLPRPRPRPLHFPRP are within 0.2 log units of each other in “shrunken log2 fold change” value: 0.0238 for the first, -0.17 for the second.

RRIRRRPPRLPRPRPRPCTWPRP and RRIRTRPPRLPRPRPRPLKVPRP are within 0.2 log units of each other in “shrunken log2 fold change” value: -0.0877 for the first, -0.221 for the second.

Compared with RRIRSRPPRLPRPRPRPDAIPRP, RRIRDRPPRLPRPRPRPEHGPRP is lower in “shrunken log2 fold change” value: 0.339 for the first, 0.0582 for the second.

First: RRIRFRPPRLPRPRPRPNVKPRP
Second: RRIRIRPPRLPRPRPRPWEDPRP
The “shrunken log2 fold change” value of the first is lower: -0.574 for the first, -0.202 for the second.

First: RRIRDRPPRLPRPRPRPSPPPRP
Second: RRIRIRPPRLPRPRPRPCCVPRP
The “shrunken log2 fold change” value of the first is higher: -0.15 for the first, -0.726 for the second.

RRIRRRPPRLPRPRPRPMQVPRP and RRIRQRPPRLPRPRPRPMFIPRP are within 0.2 log units of each other in “shrunken log2 fold change” value: -0.198 for the first, -0.129 for the second.

Going from RRIRSRPPRLPRPRPRPDFNPRP to RRIRTRPPRLPRPRPRPGSQPRP, the “shrunken log2 fold change” value rises from -0.411 to 0.0756.

RRIRRRPPRLPRPRPRPQGGPRP and RRIRARPPRLPRPRPRPLCHPRP are within 0.2 log units of each other in “shrunken log2 fold change” value: 0.0141 for the first, 0.173 for the second.

RRIRRRPPRLPRPRPRPLASPRP and RRIRLRPPRLPRPRPRPRHGPRP are within 0.2 log units of each other in “shrunken log2 fold change” value: 0.382 for the first, 0.414 for the second.

Compared with RRIRNRPPRLPRPRPRPWALPRP, RRIRMRPPRLPRPRPRPVAQPRP is higher in “shrunken log2 fold change” value: -0.0675 for the first, 0.963 for the second.

Compared with RRIRSRPPRLPRPRPRPETIPRP, RRIRPRPPRLPRPRPRPGITPRP is lower in “shrunken log2 fold change” value: 0.148 for the first, -0.138 for the second.

Compared with RRIRRRPPRLPRPRPRPPYAPRP, RRIRRRPPRLPRPRPRPSLPPRP is lower in “shrunken log2 fold change” value: 0.774 for the first, 0.44 for the second.

RRIRVRPPRLPRPRPRPIKGPRP and RRIRYRPPRLPRPRPRPIFRPRP are within 0.2 log units of each other in “shrunken log2 fold change” value: -0.155 for the first, -0.258 for the second.

In the case of RRIRPRPPRLPRPRPRPCSVPRP, the “shrunken log2 fold change” value is reported as 0.0152.
